Measured values: patent US20060183687A1 (WALTER AND ELIZA HALL INSTITUTE OF MEDICAL RESEARCH, published 2006)

T1: Epstein-Barr virus BHRF-1 protein (Epstein-Barr virus, UniProt P03182 1-191)
T1 sequence: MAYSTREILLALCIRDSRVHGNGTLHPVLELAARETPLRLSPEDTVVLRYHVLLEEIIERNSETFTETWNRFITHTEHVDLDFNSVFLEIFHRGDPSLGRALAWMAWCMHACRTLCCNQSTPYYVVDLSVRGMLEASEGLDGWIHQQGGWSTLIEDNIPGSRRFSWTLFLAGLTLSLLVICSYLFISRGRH


What was measured:
human Bcl-2 [1] = molecular target: T2, human Bcl-2 (human, UniProt P10415 1-239); assay: immunoprecipitation with anti-human Bcl-2 from FDC-P1 cells, anti-EE immunoblot
T2 construct: also called wt Bcl-2
T2 sequence (P10415 whole entry): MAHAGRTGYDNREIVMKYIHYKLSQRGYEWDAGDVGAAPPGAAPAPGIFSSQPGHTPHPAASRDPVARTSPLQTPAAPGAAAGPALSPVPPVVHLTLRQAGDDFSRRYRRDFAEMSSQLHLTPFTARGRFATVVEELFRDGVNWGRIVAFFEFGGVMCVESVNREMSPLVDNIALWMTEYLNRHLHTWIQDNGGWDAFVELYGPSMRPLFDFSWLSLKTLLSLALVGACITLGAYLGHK

human Bcl-2 [2] = molecular target: T2, human Bcl-2; assay: yeast two-hybrid, beta-galactosidase activity with ONPG
dynein light chain = molecular target: T3, dynein light chain (UniProt P63167 1-89, limits assumed); assay: yeast two-hybrid, beta-galactosidase activity with ONPG; reference wild-type BimL
T3 construct: also called cytoplasmic dynein light chain
T3 sequence (P63167 whole entry): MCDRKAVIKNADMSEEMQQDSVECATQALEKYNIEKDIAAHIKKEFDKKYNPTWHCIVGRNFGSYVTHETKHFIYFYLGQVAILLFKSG

human Bcl-2 [3] = molecular target: T2, human Bcl-2; assay: immunoprecipitation and immunoblot from FDC-P1 cells
human Bcl-2 [4] = molecular target: T2, human Bcl-2; assay: immunoprecipitation and immunoblot from FDC-P1 cells (FIG. 8B)
[5] = molecular target: T1, Epstein-Barr virus BHRF-1 protein; assay: immunoprecipitation from co-transfected 293T cells

Row | Binder | binding result (human Bcl-2 [2]) | activity compared to wild-type BimL (dynein light chain) [%] | also measured
1 | EE-tagged BimS (other) EYMPMEMAKQPSDVSSECDREGGQLQPAERPPQLRPGAPTSLQTEPQASIRQSQEEPEDLRPEIRIAQELRRIGDEFNETYTRRVFANDYREAEDHPQMVILQLLRFIFRLVWRRH | – | – | binding result (human Bcl-2 [1]): binds
2 | murine BimL (wild-type) (other, also called wild-type BimL; mBIM L) MAKQPSDVSSECDREGGQLQPAERPPQLRPGAPTSLQTEPQDRSPAPMSCDKSTQTPSPPCQAFNHYLSAMASIRQSQEEPEDLRPEIRIAQELRRIGDEFNETYTRRVFANDYREAEDHPQMVILQLLRFIFRLVWRRH | binds | – | –
3 | BimL double mutant T54I/N65S (other, also called T541/N65S; double mutant T541/N65S) MAKQPSDVSSECDREGGQLQPAERPPQLRPGAPTSLQTEPQDRSPAPMSCDKSIQTPSPPCQAFSHYLSAMASIRQSQEEPEDLRPEIRIAQELRRIGDEFNETYTRRVFANDYREAEDHPQMVILQLLRFIFRLVWRRH | binds | < 0.1 | –
4 | BimL mutant S53P (other) MAKQPSDVSSECDREGGQLQPAERPPQLRPGAPTSLQTEPQDRSPAPMSCDKPTQTPSPPCQAFNHYLSAMASIRQSQEEPEDLRPEIRIAQELRRIGDEFNETYTRRVFANDYREAEDHPQMVILQLLRFIFRLVWRRH | binds | < 0.1 | –
5 | BimL mutant T54A (other) MAKQPSDVSSECDREGGQLQPAERPPQLRPGAPTSLQTEPQDRSPAPMSCDKSAQTPSPPCQAFNHYLSAMASIRQSQEEPEDLRPEIRIAQELRRIGDEFNETYTRRVFANDYREAEDHPQMVILQLLRFIFRLVWRRH | binds | < 0.1 | –
6 | BimL mutant D51G (other, also called D51G mutant) MAKQPSDVSSECDREGGQLQPAERPPQLRPGAPTSLQTEPQDRSPAPMSCGKSTQTPSPPCQAFNHYLSAMASIRQSQEEPEDLRPEIRIAQELRRIGDEFNETYTRRVFANDYREAEDHPQMVILQLLRFIFRLVWRRH | binds | – | –
7 | EE-tagged BimEL (other) EYMPMEMAKQPSDVSSECDREGGQLQPAERPPQLRPGAPTSLQTEPQGNPDGEGDRCPHGSPQGPLAPPASPGPFATRSPLFIFVRRSSLLSRSSSGYFSFDTDRSPAPMSCDKSTQTPSPPCQAFNHYLSAMASIRQSQEEPEDLRPEIRIAQELRRIGDEFNETYTRRVFANDYREAEDHPQMVILQLLRFIFRLVWRRH | – | – | binding result (human Bcl-2 [1]): binds
8 | EE-BimL ΔBH3 mutant (other, also called EE-Bim ΔBH3) EYMPMEMAKQPSDVSSECDREGGQLQPAERPPQLRPGAPTSLQTEPQDRSPAPMSCDKSTQTPSPPCQAFNHYLSAMASIRQSQEEPEDLRPEIRIAQEALFNETYTRRVFANDYREAEDHPQMVILQLLRFIFRLVWRRH | – | – | binding result (human Bcl-2 [3]): no binding
9 | EE-tagged BimL (Glu-Glu epitope-tagged mouse BimL) (other, N-terminal EE tag from a pEF vector derivative; also called EE-BimL; EE BimL) EYMPMEMAKQPSDVSSECDREGGQLQPAERPPQLRPGAPTSLQTEPQDRSPAPMSCDKSTQTPSPPCQAFNHYLSAMASIRQSQEEPEDLRPEIRIAQELRRIGDEFNETYTRRVFANDYREAEDHPQMVILQLLRFIFRLVWRRH | – | – | binding result (human Bcl-2 [4]): binds; binding result [5]: no binding
